Changes are numbered by the printed parent chain.
B1: H1M797N (antibody, V domains shown)
VH: QVQLVESGGGVVQPGRSLRLSCAASGFTFSSYGMHWVRQAPGKGLEWVAVISYDGNNKHFADSVKGRFTISRDNSKNTLNLQMNSLRAEDRAVYYCARGASGFVLDIWGQGTMVTVSS
VL: DIVMTQTPLSSPVTLGQPASISCRSSQSLVRSDGNTYLSWLQQRPGQPPRLLIYKISNRFSGVPDRFSGSGAGTDFTLKISRVEAEDVGIYFCMQTTQFPFTFGPGTKVDIK
B2: H1M801N (antibody, V domains shown)
VH: QVQVVESGGGVVQPGRSLRLSCAASGFTFSNYGMHWVRQAPGKGLEWVTVISYDGSNKNYADSVKGRFTISRDNSKNTLYLQMNSLRAEDTAMYYCARGGSGFAFDIWGQGTMVTVSS
VL: B1 VL with E86D, I90V, F92Y
notes: also called H1H801N
B3: H1M852N (antibody, V domains shown)
VH: QVQLVESGGGVVQPGRSLTLSCAASGFMFNRFGMHWVRQAPGKGLDWVAVIWYDGSNKYYADSVKGRFTISRDNSKNTLYLQVNSLRAEDTAVYYCAREGTPHYYDSSGLDYWGQGTLVTVSS
VL: AIQMTQSPSSLSAYVGDRVTITCRASQDIRNDLGWYQQKPGKAPNLLIYDISSLQSGVPSRFSGSGSGTDFTLTISSLQPEDFATYYCLQDYNYPLTFGGGTKVEIK
notes: constant region may differ; also called H4H852N
B4: H1M836N (antibody, V domains shown)
VH: QVQLVESGGGVVQPGRSLRLSCAASGFTFSSYGMHWVRQAPGKGLEWVAVISYDGNNKYYADSVKGRFTISRDNSKNTLYLQMNSLRAEDTAVYYCAKGSAGYALDYWGQGTLVTVSS
VL: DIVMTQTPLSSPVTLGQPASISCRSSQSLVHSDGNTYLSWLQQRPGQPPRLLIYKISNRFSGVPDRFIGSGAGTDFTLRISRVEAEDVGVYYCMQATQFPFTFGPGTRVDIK
B5: H1M879N (antibody, V domains shown)
VH: EVQLVESGGGLVKPGGSLRLSCAASGFTFSSYTIHWVRQAPGKGLEWVSSISSSSSYIYYVDSVKGRFTISRDNAKNSVYLQMNSLRAEDTAVYYCATSSITARGYFDYWGQGTLVTVSS
VL: EIVLTQSPATLSLSPGERVTLSCRASQSVSSYLAWYQQKPGQAPRLLIYDASNRATGIPARFSGSGSGTDFTLTISSLEPEDFAVYYCQQRNIWPPTFGQGTKVEIK
notes: Hybridoma-derived
B6: H1H1006B (antibody, V domains shown)
VH: EVQLVESGPGLVKSSETLSLKCTVSGGSISSSGYYWGWIRQPPGKGLEWIGSIHRSGSTFYNPSLKSRVTISVDTSKSQFSLRLTSVTAADTSVYFCGRHGRDYYYGMDVWGQGTTVTVSS
VL: DIQMTQSPSSVSASVGDRVTITCRSSQDINNWLVWYQQKPGKAPKVLIYGASRLQSGVPSRFSGSGSGTDFTLTISSLQPEDFATYYCQQANSFPLTFGGGTKVEIKR
notes: Fully human antibody; also called H4H1006B-1

Target: T1, C-term Biotin Nav1.7 (3-1) peptide, human (human, not fully specified; C-terminal biotin attached via a G4S linker)
T1 construct: Synthetic peptide; also called Human Nav1.7 3-1 C-term biotin
T1 peptide: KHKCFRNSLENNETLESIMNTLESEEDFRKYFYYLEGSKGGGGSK
Assay: SPR, captured biotin-peptide, antibody analyte

In order of falling Kd:
1. B4  19200 pM
2. B2  511 pM
3. B1  359 pM
4. B5  270 pM
5. B6  239 pM

In order of rising t1/2:
1. B4  0.0633 h
2. B2  1.18 h
3. B6  1.36 h
4. B5  1.45 h
5. B1  1.65 h

B3: no binding.

These binders were tested against T2, full-length human Nav1.7 fused at its N-terminus to GFP, expressed in HEK293 cells (human, UniProt Q15858 1-1988) (assay: flow cytometry on Nav1.7-GFP-HEK293, antibody 3.3 nM).
T2 construct: Voltage-gated sodium channel alpha subunit; In the Western blot it stood as denatured cell lysate; also called hNav 1.7-GFP-HEK293; Nav 1.7-GFP-HEK293; not shown: green fluorescent protein (GFP) at the N-terminus
Experimental: The specificity of binding of anti-Naᵥ 1.7 human antibodies to full-length Naᵥ 1.7 expressed in HEK293 cells was determined by peptide competition experiments using flow cytometry.
HEK293 cells stably-transfected with full-length Naᵥ 1.7 fused at its N-terminus to GFP (Naᵥ 1.7-GFP-HEK293) were used for this study. Antibody binding to the transfected cells overexpressing Naᵥ 1.7 was compared to binding in the presence of excess peptide and to binding to the parental HEK293 cell line. To perform the binding experiments, adherent cells were collected using 1 mM EDTA in PBS, washed and re-suspended in cold PBS containing 5% FBS. For each binding experiment the anti-Naᵥ 1.7 antibody at a final concentration of 3.3 nM (in PBS/5% FBS) was added to cells either directly or after incubating for 10 min on ice with a 1000-fold molar excess (3.3 uM final concentration in PBS/5% FBS) of synthetic peptide with sequence corresponding to the loop specificity of the antibody. The antibodies designated as H4H391P, H4H443B, H4H448B, and H1M797N were preincubated as described above with a synthetic peptide corresponding to EC loop 3-1 (amino acid residues 269-338 of SEQ ID NO: 670), whereas the antibodies designated as H4H468P and H1 M852N were preincubated with a synthetic peptide corresponding to EC loop 3-3 (amino acid residues 1333-1382 of SEQ ID NO: 670). The antibody or antibody-peptide mixture was then allowed to incubate with cells for 20 min on ice, followed by addition of 500 uL of cold PBS/5% FBS. Cells were collected by centrifugation, resuspended in 500 uL of cold PBS/5% FBS, and then secondary antibody matched to the antibody isotype (either anti-human-Fc conjugated to Cyanine 5 or anti-mouse-Fc conjugated to allophyococyanin) was added. Binding was detected on the flow cytometry instrument and analyzed as percent binding using the instrument software. For FACS analysis appropriate gating was applied so that only healthy, live cells were counted. Background staining of secondary antibodies alone to Naᵥ 1.7-GFP-HEK293 cells was tested and recorded for all samples, and results ranged between 1-2% binding.

In order of rising “% Binding Nav1.7 (Stable Line)” value:
1. B1  45.4%
2. B2  49.5%
3. B5  63%
4. B3  64.1%
5. B4  68.9%

The binders below were run against T2, full-length human Nav1.7 fused at its … (assay: flow cytometry; % stained hNav1.7-GFP-HEK293 minus parental HEK293).
How it was run: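 Antibody (1-13 nM) incubated 20 min on ice with stably transfected hNav1.7-GFP-HEK293 or parental HEK293 cells in PBS/5% FBS, then 1.7 nM Cy5- or APC-labelled anti-Fc secondary for 20 min on ice. Flow cytometry of live-gated cells; specific binding = % stained transfected minus % stained parental.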

In order of rising “% Binding Nav1.7” value:
1. B6  8.6%
2. B1  14.4%
3. B2  49.5%
4. B5  63%
5. B3  68.6%
6. B4  68.9%
